Test results as given in patent US12624112 (MABWELL SHANGHAI BIOSCIENCE, dated 2026).

T1: Human ST2-his (human, UniProt Q01638 19-328)
T1 construct: Expressed in CHO-K1; also called human ST2 fused with a 6-histidine tag at the C-terminus
T1 sequence: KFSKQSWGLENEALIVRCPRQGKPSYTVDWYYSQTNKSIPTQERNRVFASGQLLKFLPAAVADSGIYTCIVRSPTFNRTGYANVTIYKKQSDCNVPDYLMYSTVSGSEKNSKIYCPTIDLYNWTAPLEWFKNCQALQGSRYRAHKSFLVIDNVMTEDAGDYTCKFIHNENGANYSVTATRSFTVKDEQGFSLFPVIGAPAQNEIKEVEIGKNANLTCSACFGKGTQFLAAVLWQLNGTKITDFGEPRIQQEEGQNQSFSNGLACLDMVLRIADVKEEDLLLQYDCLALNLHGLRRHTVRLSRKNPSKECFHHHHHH

T2: Cyno ST2-fc (cyno; human, UniProt A0A2K5UDB8 19-331)
T2 construct: also called cyno ST2 fused with a human IgG1 Fc tag at the C-terminus
T2 sequence: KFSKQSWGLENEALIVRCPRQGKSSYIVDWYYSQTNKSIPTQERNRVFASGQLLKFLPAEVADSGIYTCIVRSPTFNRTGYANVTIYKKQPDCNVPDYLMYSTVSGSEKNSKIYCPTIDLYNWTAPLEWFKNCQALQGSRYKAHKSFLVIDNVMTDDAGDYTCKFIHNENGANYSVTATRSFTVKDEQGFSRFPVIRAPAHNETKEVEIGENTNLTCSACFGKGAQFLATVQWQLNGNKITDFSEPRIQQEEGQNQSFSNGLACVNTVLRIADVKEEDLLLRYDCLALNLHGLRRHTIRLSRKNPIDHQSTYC

T3: ST2 on KU812 cells (UniProt Q01638 19-556, limits assumed)
T3 sequence (looked up): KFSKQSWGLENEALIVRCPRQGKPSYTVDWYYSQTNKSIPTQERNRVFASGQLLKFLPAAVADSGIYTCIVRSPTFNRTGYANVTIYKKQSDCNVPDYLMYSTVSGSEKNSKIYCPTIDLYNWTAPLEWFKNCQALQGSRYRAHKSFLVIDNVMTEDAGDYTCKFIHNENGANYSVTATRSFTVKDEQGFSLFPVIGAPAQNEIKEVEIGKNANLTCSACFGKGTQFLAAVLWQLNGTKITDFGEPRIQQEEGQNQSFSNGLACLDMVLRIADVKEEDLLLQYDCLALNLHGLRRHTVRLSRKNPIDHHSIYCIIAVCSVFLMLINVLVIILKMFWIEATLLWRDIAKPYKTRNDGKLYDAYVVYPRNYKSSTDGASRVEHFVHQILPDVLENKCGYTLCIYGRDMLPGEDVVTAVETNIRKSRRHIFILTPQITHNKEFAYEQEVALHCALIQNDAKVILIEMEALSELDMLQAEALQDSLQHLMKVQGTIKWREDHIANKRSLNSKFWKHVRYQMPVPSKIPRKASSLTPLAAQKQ


Assays:
Human ST2-his [1] = target: T1, Human ST2-his; assay: ELISA, coated human ST2-his
Description: Human ST2-his was diluted with a coating buffer to 1 μg/mL, added into plates at 50 μL/well, and coated overnight at 4° C. Next day, the coated plates were taken, washed with PBST for 3 times, and then incubated using a blocking buffer at room temperature for 1 hr. Subsequently, the plates were washed with PBST for 3 times again. Starting at 100 ng/mL, each murine antibody was diluted 3-fold to obtain serial dilutions of 8 concentrations in total which were then added into the 96-well plates at 50 μL/well. The plates were incubated at room temperature for 1 hr, washed with PBST for 3 times; and then a goat anti-mouse secondary antibody (1:10000) was added at 50 μL/well into the 96-well plates which subsequently were incubated at room temperature for 1 hr. The 96-well plates were washed with PBST for 3 times, and TMVB was added at 50 μL/well to develop color in dark for 10 min. Afterwards, 2 M sulfuric acid was added to stop reaction; and GD values at 450 nm were read by a micro-plate reader.

Cyno ST2-fc [2] = target: T2, Cyno ST2-fc; assay: SPR Biacore X100, antibody on CM5, cyno ST2-fc analyte
Description: The experiment on the interactions between the anti-human ST2 antibodies and cyno ST2-fc was performed using Biacore X100, and was carried out at 25° C. in HBS-EP (1×) buffer (pH 7.4). Each antibody was immobilized on the surface of CM5 chip using an amino coupling kit. Following the antibody immobilization, a solution of cyno ST2-fc (2-fold gradient dilution from a starting concentration of 8 nM, to obtain 6 concentrations in total; the starting concentration might be increased if the signal of some sample was too low) was injected. Association was monitored for 2 min and dissociation for 10 min, and the sensor surface was regenerated by injecting a solution of glycine at pH 1.5.

Human ST2-his [3] = target: T1, Human ST2-his; assay: SPR Biacore X100, antibody on protein A, ST2-his analyte
Description: On the basis of the results of the quantitative screenings of murine antibodies above together, 19 murine antibodies were selected for affinity determination and in vitro pharmacological study. The experiment on the interaction between the anti-human ST2 antibodies and human ST2-his was performed using Biacore X100, and was carried out at 25° C. in HBS-EP (1×) buffer (pH 7.4).
Each anti-human ST2 antibody was diluted to 10 nM and captured on the surface of a protein A chip (for a capture time of 60 s). […] Association was monitored for 4 min and dissociation for 10 min, and the sensor surface was regenerated by injecting a solution of glycine at pH 2.0. Data generated for kinetics and affinity assay were analyzed using BIAevaluation software.

ST2 on KU812 cells [4] = target: T3, ST2 on KU812 cells; assay: cell-based or functional assay
Human ST2-fc (human) = Human ST2-fc (human) (UniProt Q01638); assay: competition ELISA, coated ST2-fc, competitor IL33-his
Cyno ST2-fc [5] = target: T2, Cyno ST2-fc; assay: ELISA, coated cyno ST2-fc
Description: Cyno ST2-fc was diluted with a coating buffer to 1 μg/mL, added into 96-well plates at 50 μL/well and coated overnight at 4° C. Next day, the coated plates were taken, washed with PB ST for 3 times, and then incubated using a blocking buffer at room temperature for 1 hr. Subsequently, the plates were washed with PBST for 3 times again. Starting at 1000 ng/mL, each murine antibody was diluted 3-fold to obtain serial dilutions of 8 concentrations in total which were then added into the 96-well plates at 50 μL/well. The plates were incubated at room temperature for 1 hr, washed with PB ST for 3 times; and then a goat anti-mouse secondary antibody (1:10000) was added at 50 μL/well into the 96-well plates which subsequently were incubated at room temperature for 1 hr. The 96-well plates were washed with PB ST for 3 times, and TMB was added at 50 μL/well to develop color in dark for 10 min. Afterwards, 2 M sulfuric acid was added to stop reaction; and GD values at 450 nm were read by a microplate reader. It can be seen that the murine antibodies can bind to cyno ST2, with a binding trendency consistent with the binding to human ST2.

ST2 on KU812 cells [6] = target: T3, ST2 on KU812 cells; assay: cell-based or functional assay; remark: listed apart in the source

| EC50 (Human ST2-his [1]) [µg/mL] | Relative activity (%) compared with CNTO7160 (Human ST2-his [1]) [%] | Kd (Cyno ST2-fc [2]) [pM] | koff (Cyno ST2-fc [2]) [s⁻¹] | kon (Cyno ST2-fc [2]) [M⁻¹ s⁻¹] | Kd (Human ST2-his [3]) [pM] | koff (Human ST2-his [3]) [s⁻¹] | kon (Human ST2-his [3]) [M⁻¹ s⁻¹] | IC50, activation of KU812-NF-κB reporter gene by IL33 (ST2 on KU812 cells [4]) [µg/mL] | Relative activity (%) compared with CNTO7160, KU812-NF-κB reporter (ST2 on KU812 cells [4]) [%] | IC50 (Human ST2-fc (human)) [µg/mL] | Relative activity (%) compared with CNTO7160 (Human ST2-fc (human)) [%] | EC50 (Cyno ST2-fc [5]) [µg/mL] | Relative activity (%) (Cyno ST2-fc [5]) | Maximum inhibition rate (%), KU812 IL-5 production (ST2 on KU812 cells [6]) [%] | Relative activity (%), KU812 IL-5 production (ST2 on KU812 cells [6]) [%] | Binder |
| --- | --- | --- | --- | --- | --- | --- | --- | --- | --- | --- | --- | --- | --- | --- | --- | --- |
| 0.0113 | 124 | 129 | 0.000826 | 6.41e+06 | 160 | 0.0007 | 4.38e+06 | 0.0552 | 454 | 0.62 | 94.7 | 0.0192 | 127 | 71 | 98.5 | 5888-357H+L (antibody, V domains shown, murine antibody) VH: QVQLQQSVTELVRPGASVTLSCKASGYRFTDSEMHWVKQTPVHGLEWIGTIDPETGGTVYNQKFKGKAKLTADRSSSTVSMELRSLTSEDSAVYYCTRAFYNDFDDGFAYWGQGTLVTVSA VL: QIVMTQSPAIMSASPGEKVTLTCSASTSVSYMHWYQQKSGTSPKRWIYDTSKLASGVPARFSGSGSGTSYSLTISSMEAEDAATYYCQQWSSNPLTFGAGTKLELK |
| 0.0295 | 33.9 | 31.7 | 0.000152 | 4.78e+06 | 571 | 0.000546 | 957000 | 0.391 | 64.2 | 0.83 | 70.1 | 0.0602 | 40.6 | 92.7 | 19.2 | 5888-379H1+L2 (antibody, V domains shown, murine antibody) VH: QIQLAQSGPELKKPGETVKISCKASGYTFINYGMNWVKQAPGKDLKWMGWINTYIGEPTYGDNFKGRFAFSLETSASTVYLQINNLKNEDTATYFCAREGDGFAYWGQGTLVTVSA VL: DIVMTQSPPSLSVSVGEKVTMSCKSSQSLLYSGNQNNYLAWYQQKPGQPPKLLIYGASTRESGVPDRFTGSGSGTDFTLTISSVQAEDLAVYYCQNDHSYPYTFGGGTKLEIK |
